# T1: AFP p26 (human, UniProt P02771 381-609)
# T1 construct: The construct used is not described
# T1 sequence: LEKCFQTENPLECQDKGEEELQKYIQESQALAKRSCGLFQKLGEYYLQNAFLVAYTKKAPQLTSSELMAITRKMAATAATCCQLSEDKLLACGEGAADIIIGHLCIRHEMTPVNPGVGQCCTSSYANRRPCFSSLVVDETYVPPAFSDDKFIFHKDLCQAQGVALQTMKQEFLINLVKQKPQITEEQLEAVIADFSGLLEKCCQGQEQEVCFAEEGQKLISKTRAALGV
# Molecular target: T1, AFP p26
# Assay: phage ELISA, A450 target/A450 IgG1-Fc
# Method in brief: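 Phage rescued with VCSM13 helper phage from phagemid colonies picked from panning output were tested on plates coated with goat anti-human IgG1-Fc antibody that carried either recombinant human target or IgG1-Fc. Bound phage were detected with HRP-conjugated anti-M13 antibody at 450 nm. The ELISA ratio is target absorbance over IgG1-Fc absorbance, averaged across all screened wells holding the clone.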
row,Binder,ELISA_avg [ratio]
1,SEQ ID NO 778 (designed binder) MGSWTEFQNRLNAIDHRLWALGGSEAELAAFEKEIAAFESELQAYKGKGNPEVESLREHAAKIRVWLQAYRHN,30.5
2,SEQ ID NO 779 (designed binder) MGSWSEFFKRLEAIDRRLWALGGSEAELAAFEKEIAAFESELQAYKGKGNPEVEELREHAAHIRVWLQAYRHN,30.2
3,SEQ ID NO 780 (designed binder) MGSWYEFQQRLEAIDTRLWALGGSEAELAAFEKEIAAFESELQAYKGKGNPEVEELREHAAHIRHWLQAYRHN,27.3
4,SEQ ID NO 781 (designed binder) MGSWTEFEKRLHAIDYRLWALGGSEAELAAFEKEIAAFESELQAYKGKGNPEVEDLREHAAAIRHWLQAYRHN,17.1
5,SEQ ID NO 782 (designed binder) MGSWTEFHQRLDAIDERLWALGGSEAELAAFEKEIAAFESELQAYKGKGNPEVEFLREHAAKIRMWLQAYRHN,24.4
6,SEQ ID NO 783 (designed binder) MGSWLEFSQRLTAIDSRLWALGGSEAELAAFEKEIAAFESELQAYKGKGNPEVENLREHAAKIRNWLQAYRHN,30.4
7,SEQ ID NO 784 (designed binder) MGSWTEFVNRLYAIDSRLWALGGSEAELAAFEKEIAAFESELQAYKGKGNPEVEGLRTHAAKIRHWLQAYRHN,16.7
8,SEQ ID NO 785 (designed binder) MGSWMEFVDRLSAIDRRLWALGGSEAELAAFEKEIAAFESELQAYKGKGNPEVEVLREHAANIRQWLQAYRHN,32.1
9,SEQ ID NO 786 (designed binder) MGSWVEFVSRLYAIDFRLWALGGSEAELAAFEKEIAAFESELQAYKGKGNPEVEALREHAAQIRDWLQAYRHN,29
10,SEQ ID NO 787 (designed binder) MGSWSEFHTRLDAIDTRLWALGGSEAELAAFEKEIAAFESELQAYKGKGNPEVEDLRRHAAAIRFWLQAYRHN,23.5
11,SEQ ID NO 788 (designed binder) MGSWLEFHSRLDAIDTRLWALGGSEAELAAFEKEIAAFESELQAYKGKGNPEVEKLREHAAAIRHYLQAYRHN,30.8
12,SEQ ID NO 789 (designed binder) MGSWTEFYQRLDAIDTRLWALGGSEAELAAFEKEIAAFESELQAYKGKGNPEVEGLRQQAAQIRAWLQAYRHN,29.7
13,SEQ ID NO 792 (designed binder) MGSWYEFYKRLEAIDNRLYALGGSEAELAAFEKEIAAFESELQAYKGKGNPEVEYLREHAAAIRHWLQAYRHN,30.8
14,SEQ ID NO 793 (designed binder) MGSWYEFYYRLEAIDNRLIALGGSEAELAAFEKEIAAFESELQAYKGKGNPEVEVLREHAAKIREWLQAYRHN,29.6
15,SEQ ID NO 794 (designed binder) MGSWYEFVSRLEAIDDRLYALGGSEAELAAFEKEIAAFESELQAYKGKGNPEVEMLRQHAAAIRHWLQAYRHN,33.1
16,SEQ ID NO 795 (designed binder) MGSWYEFSHRLEAIEDRLFALGGSEAELAAFEKEIAAFESELQAYKGKGNPEVEPLREHAAYIRHWLQAYRHN,26
17,SEQ ID NO 796 (designed binder) MGSWFEFFERLAAIEDRLWALGGSEAELAAFEKEIAAFESELQAYKGKGNPEVESLRVHAAAIRAFLQAYRHN,20.3
18,SEQ ID NO 797 (designed binder) MGSWIEFKYRLDAIEWRLEALGGSEAELAAFEKEIAAFESELQAYKGKGNPEVESLRIHAAAIRTWLQAYRHN,18.3
19,SEQ ID NO 798 (designed binder) MGSWYEFMYRLDAIEYRLFALGGSEAELAAFEKEIAAFESELQAYKGKGNPEVESLRIHAAMIREWLQAYRHN,19.4
20,SEQ ID NO 799 (designed binder) MGSWVEFVTRLEAIEDRLFALGGSEAELAAFEKEIAAFESELQAYKGKGNPEVEHLRAHAAHIRHWLQAYRHN,11.7
21,SEQ ID NO 800 (designed binder) MGSWYEFVIRLDAIEDRLFALGGSEAELAAFEKEIAAFESELQAYKGKGNPEVEHLRVHAAHIRVWLQAYRHN,30.1

row,Binder,ELISA_avg [ratio]
1,SEQ ID NO 801 (designed binder) MGSWVEFVERLDAIEFRLFALGGSEAELAAFEKEIAAFESELQAYKGKGNPEVEKLRNHAAHIRSWLQAYRHN,23.8
2,SEQ ID NO 802 (designed binder) MGSWSEFVHRLDAIEVRLFALGGSEAELAAFEKEIAAFESELQAYKGKGNPEVEELRYHAAKIRSWLQAYRHN,16.9
3,SEQ ID NO 803 (designed binder) MGSWSEFYYRLAAIESRLFALGGSEAELAAFEKEIAAFESELQAYKGKGNPEVERLREHAAHIRRWLQAYRHN,30.8
4,SEQ ID NO 804 (designed binder) MGSWYEFYLRLSAIEDRLFALGGSEAELAAFEKEIAAFESELQAYKGKGNPEVESLRVQAAHIRTWLQAYRHN,27.4
5,SEQ ID NO 805 (designed binder) MGSWYEFYDRLDAIEDRLFALGGSEAELAAFEKEIAAFESELQAYKGKGNPEVESLRDQAAYIRTWLQAYRHN,31.9
6,SEQ ID NO 806 (designed binder) MGSWHEFWVRLEAIESRLFALGGSEAELAAFEKEIAAFESELQAYKGKGNPEVESLRVQAAHIRSWLQAYRHN,26.9
7,SEQ ID NO 807 (designed binder) MGSWVEFYHRLEAIEQRLMALGGSEAELAAFEKEIAAFESELQAYKGKGNPEVESLREQAAAIRSWLQAYRHN,28.5
8,SEQ ID NO 808 (designed binder) MGSWVEFYERLNAIEYRLEALGGSEAELAAFEKEIAAFESELQAYKGKGNPEVESLREHAAYIRQWLQAYRHN,28.7
9,SEQ ID NO 790 (designed binder) MGSWAEFSDRLNAIDQRLWALGGSEAELAAFEKEIAAFESELQAYKGKGNPEVEILREHAAEIRKFLQAYRHN,25.3
10,SEQ ID NO 791 (designed binder) MGSWMEFNHRLQAIDGRLWALGGSEAELAAFEKEIAAFESELQAYKGKGNPEVEMLREHAAAIRAFLQAYRHN,33.4
11,SEQ ID NO 809 (designed binder) MGSWVEFYHRLDAIFDRLDALGGSEAELAAFEKEIAAFESELQAYKGKGNPEVEELRANAAGIRSWLQAYRHN,20
12,SEQ ID NO 810 (designed binder) MGSWSEFTDRLFAIEDRLLALGGSEAELAAFEKEIAAFESELQAYKGKGNPEVEDLRMHAASIRLWLQAYRHN,25.4
13,SEQ ID NO 811 (designed binder) MGSWHEFYDRLYAIWDRLDALGGSEAELAAFEKEIAAFESELQAYKGKGNPEVEGLRNAAAVIRIFLQAYRHN,22.9
14,SEQ ID NO 812 (designed binder) MGSWFEFSNRLYAIWHRLTALGGSEAELAAFEKEIAAFESELQAYKGKGNPEVESLRTQAAFIRILLQAYRHN,15.2
15,SEQ ID NO 813 (designed binder) MGSWFEFSDRLYAIWERLDALGGSEAELAAFEKEIAAFESELQAYKGKGNPEVESLRFQAAFIRYQLQAYRHN,19
16,SEQ ID NO 814 (designed binder) MGSWFEFEDRLFAIWTRLEALGGSEAELAAFEKEIAAFESELQAYKGKGNPEVESLRQSAASIRWLLQAYRHN,10.9
17,SEQ ID NO 815 (designed binder) MGSWHEFSERLFAIWTRLEALGGSEAELAAFEKEIAAFESELQAYKGKGNPEVEALRQSAAFIRVMLQAYRHN,8.21
18,SEQ ID NO 816 (designed binder) MGSWGEFTVRLYAIDRRLDALGGSEAELAAFEKEIAAFESELQAYKGKGNPEVEELRRFAAIIRAFLQAYRHN,8.54
19,SEQ ID NO 817 (designed binder) MGSWYEFDHRLMAISFRLVALGGSEAELAAFEKEIAAFESELQAYKGKGNPEVETLRRRAANIRHLLQAYRHN,20.1
20,SEQ ID NO 818 (designed binder) MGSWSIFKYHLADIKLLLEALGGSEAELAYFEFLIADFEFTLQDYKGKGNPEVEALRKEAAAIRDELQAYRHN,20.2
21,SEQ ID NO 819 (designed binder) MGSWHHFKYFLADIKSILEALGGSEAELAIFEVQIAYFEDLLQSYKGKGNPEVEALRKEAAAIRDELQAYRHN,8
